“And” between values parts separate entries of the source, which are not always exact repeats. Equal values may be shown once.
B1: KB001 mouse Fab VH Y106K (Fab, V domains shown)
VH: EVQLKQSGPGLVAPSQSLSITCTVSGFSLSIYSVHWVRQPPGKGLEWLGMIWGGGSSDYNSALKSRLSISKDNSKSQVFLKMNSLQTDDTAMYYCARNGNFYAMDKWGQGTSVTVSS
VL: QIVLTQSPAIMSASLGERVTMTCTASSSVSSSFLHWYQQKPGSSPQLWIYSTSNLASGVPARFSGSGSGTSYSLTISSMEAEDAATYYCHQYHHSPYIYTFGGGTKLEIK
B2: KB001 mouse Fab VH Y106S (Fab, V domains shown)
VH: EVQLKQSGPGLVAPSQSLSITCTVSGFSLSIYSVHWVRQPPGKGLEWLGMIWGGGSSDYNSALKSRLSISKDNSKSQVFLKMNSLQTDDTAMYYCARNGNFYAMDSWGQGTSVTVSS
VL: QIVLTQSPAIMSASLGERVTMTCTASSSVSSSFLHWYQQKPGSSPQLWIYSTSNLASGVPARFSGSGSGTSYSLTISSMEAEDAATYYCHQYHHSPYIYTFGGGTKLEIK
B3: KB001 mouse Fab VH L29T (Fab, V domains shown)
VH: EVQLKQSGPGLVAPSQSLSITCTVSGFSTSIYSVHWVRQPPGKGLEWLGMIWGGGSSDYNSALKSRLSISKDNSKSQVFLKMNSLQTDDTAMYYCARNGNFYAMDYWGQGTSVTVSS
VL: QIVLTQSPAIMSASLGERVTMTCTASSSVSSSFLHWYQQKPGSSPQLWIYSTSNLASGVPARFSGSGSGTSYSLTISSMEAEDAATYYCHQYHHSPYIYTFGGGTKLEIK
B4: KB001 mouse Fab VH S28Y (Fab, V domains shown)
VH: EVQLKQSGPGLVAPSQSLSITCTVSGFYLSIYSVHWVRQPPGKGLEWLGMIWGGGSSDYNSALKSRLSISKDNSKSQVFLKMNSLQTDDTAMYYCARNGNFYAMDYWGQGTSVTVSS
VL: QIVLTQSPAIMSASLGERVTMTCTASSSVSSSFLHWYQQKPGSSPQLWIYSTSNLASGVPARFSGSGSGTSYSLTISSMEAEDAATYYCHQYHHSPYIYTFGGGTKLEIK
B5: KB001 mouse Fab VH S28R (Fab, V domains shown)
VH: EVQLKQSGPGLVAPSQSLSITCTVSGFRLSIYSVHWVRQPPGKGLEWLGMIWGGGSSDYNSALKSRLSISKDNSKSQVFLKMNSLQTDDTAMYYCARNGNFYAMDYWGQGTSVTVSS
VL: QIVLTQSPAIMSASLGERVTMTCTASSSVSSSFLHWYQQKPGSSPQLWIYSTSNLASGVPARFSGSGSGTSYSLTISSMEAEDAATYYCHQYHHSPYIYTFGGGTKLEIK
B6: KB001 mouse Fab VH G26D (Fab, V domains shown)
VH: EVQLKQSGPGLVAPSQSLSITCTVSDFSLSIYSVHWVRQPPGKGLEWLGMIWGGGSSDYNSALKSRLSISKDNSKSQVFLKMNSLQTDDTAMYYCARNGNFYAMDYWGQGTSVTVSS
VL: QIVLTQSPAIMSASLGERVTMTCTASSSVSSSFLHWYQQKPGSSPQLWIYSTSNLASGVPARFSGSGSGTSYSLTISSMEAEDAATYYCHQYHHSPYIYTFGGGTKLEIK
B7: KB001 mouse Fab VH S28L (Fab, V domains shown)
VH: EVQLKQSGPGLVAPSQSLSITCTVSGFLLSIYSVHWVRQPPGKGLEWLGMIWGGGSSDYNSALKSRLSISKDNSKSQVFLKMNSLQTDDTAMYYCARNGNFYAMDYWGQGTSVTVSS
VL: QIVLTQSPAIMSASLGERVTMTCTASSSVSSSFLHWYQQKPGSSPQLWIYSTSNLASGVPARFSGSGSGTSYSLTISSMEAEDAATYYCHQYHHSPYIYTFGGGTKLEIK
B8: KB001 mouse Fab VH S28N (Fab, V domains shown)
VH: EVQLKQSGPGLVAPSQSLSITCTVSGFNLSIYSVHWVRQPPGKGLEWLGMIWGGGSSDYNSALKSRLSISKDNSKSQVFLKMNSLQTDDTAMYYCARNGNFYAMDYWGQGTSVTVSS
VL: QIVLTQSPAIMSASLGERVTMTCTASSSVSSSFLHWYQQKPGSSPQLWIYSTSNLASGVPARFSGSGSGTSYSLTISSMEAEDAATYYCHQYHHSPYIYTFGGGTKLEIK
B9: KB001 mouse Fab VH L29P (Fab, V domains shown)
VH: EVQLKQSGPGLVAPSQSLSITCTVSGFSPSIYSVHWVRQPPGKGLEWLGMIWGGGSSDYNSALKSRLSISKDNSKSQVFLKMNSLQTDDTAMYYCARNGNFYAMDYWGQGTSVTVSS
VL: QIVLTQSPAIMSASLGERVTMTCTASSSVSSSFLHWYQQKPGSSPQLWIYSTSNLASGVPARFSGSGSGTSYSLTISSMEAEDAATYYCHQYHHSPYIYTFGGGTKLEIK
B10: KB001 mouse Fab VH S28G (Fab, V domains shown)
VH: EVQLKQSGPGLVAPSQSLSITCTVSGFGLSIYSVHWVRQPPGKGLEWLGMIWGGGSSDYNSALKSRLSISKDNSKSQVFLKMNSLQTDDTAMYYCARNGNFYAMDYWGQGTSVTVSS
VL: QIVLTQSPAIMSASLGERVTMTCTASSSVSSSFLHWYQQKPGSSPQLWIYSTSNLASGVPARFSGSGSGTSYSLTISSMEAEDAATYYCHQYHHSPYIYTFGGGTKLEIK
B11: KB001 mouse Fab VH Y106N (Fab, V domains shown)
VH: EVQLKQSGPGLVAPSQSLSITCTVSGFSLSIYSVHWVRQPPGKGLEWLGMIWGGGSSDYNSALKSRLSISKDNSKSQVFLKMNSLQTDDTAMYYCARNGNFYAMDNWGQGTSVTVSS
VL: QIVLTQSPAIMSASLGERVTMTCTASSSVSSSFLHWYQQKPGSSPQLWIYSTSNLASGVPARFSGSGSGTSYSLTISSMEAEDAATYYCHQYHHSPYIYTFGGGTKLEIK
B12: KB001 mouse Fab VH S28A (Fab, V domains shown)
VH: EVQLKQSGPGLVAPSQSLSITCTVSGFALSIYSVHWVRQPPGKGLEWLGMIWGGGSSDYNSALKSRLSISKDNSKSQVFLKMNSLQTDDTAMYYCARNGNFYAMDYWGQGTSVTVSS
VL: QIVLTQSPAIMSASLGERVTMTCTASSSVSSSFLHWYQQKPGSSPQLWIYSTSNLASGVPARFSGSGSGTSYSLTISSMEAEDAATYYCHQYHHSPYIYTFGGGTKLEIK
B13: KB001 mouse Fab VH Y106W (Fab, V domains shown)
VH: EVQLKQSGPGLVAPSQSLSITCTVSGFSLSIYSVHWVRQPPGKGLEWLGMIWGGGSSDYNSALKSRLSISKDNSKSQVFLKMNSLQTDDTAMYYCARNGNFYAMDWWGQGTSVTVSS
VL: QIVLTQSPAIMSASLGERVTMTCTASSSVSSSFLHWYQQKPGSSPQLWIYSTSNLASGVPARFSGSGSGTSYSLTISSMEAEDAATYYCHQYHHSPYIYTFGGGTKLEIK
B14: KB001 mouse Fab VH S28H (Fab, V domains shown)
VH: EVQLKQSGPGLVAPSQSLSITCTVSGFHLSIYSVHWVRQPPGKGLEWLGMIWGGGSSDYNSALKSRLSISKDNSKSQVFLKMNSLQTDDTAMYYCARNGNFYAMDYWGQGTSVTVSS
VL: QIVLTQSPAIMSASLGERVTMTCTASSSVSSSFLHWYQQKPGSSPQLWIYSTSNLASGVPARFSGSGSGTSYSLTISSMEAEDAATYYCHQYHHSPYIYTFGGGTKLEIK
B15: KB001 mouse Fab VH G26N (Fab, V domains shown)
VH: EVQLKQSGPGLVAPSQSLSITCTVSNFSLSIYSVHWVRQPPGKGLEWLGMIWGGGSSDYNSALKSRLSISKDNSKSQVFLKMNSLQTDDTAMYYCARNGNFYAMDYWGQGTSVTVSS
VL: QIVLTQSPAIMSASLGERVTMTCTASSSVSSSFLHWYQQKPGSSPQLWIYSTSNLASGVPARFSGSGSGTSYSLTISSMEAEDAATYYCHQYHHSPYIYTFGGGTKLEIK

What follows are binders tested against HRgpA-6H (Porphyromonas gingivalis) (UniProt P28784) (assay: ELISA, coated HRgpA-6H).
Chain of UniProt P28784 (P28784 228-860 limits assumed): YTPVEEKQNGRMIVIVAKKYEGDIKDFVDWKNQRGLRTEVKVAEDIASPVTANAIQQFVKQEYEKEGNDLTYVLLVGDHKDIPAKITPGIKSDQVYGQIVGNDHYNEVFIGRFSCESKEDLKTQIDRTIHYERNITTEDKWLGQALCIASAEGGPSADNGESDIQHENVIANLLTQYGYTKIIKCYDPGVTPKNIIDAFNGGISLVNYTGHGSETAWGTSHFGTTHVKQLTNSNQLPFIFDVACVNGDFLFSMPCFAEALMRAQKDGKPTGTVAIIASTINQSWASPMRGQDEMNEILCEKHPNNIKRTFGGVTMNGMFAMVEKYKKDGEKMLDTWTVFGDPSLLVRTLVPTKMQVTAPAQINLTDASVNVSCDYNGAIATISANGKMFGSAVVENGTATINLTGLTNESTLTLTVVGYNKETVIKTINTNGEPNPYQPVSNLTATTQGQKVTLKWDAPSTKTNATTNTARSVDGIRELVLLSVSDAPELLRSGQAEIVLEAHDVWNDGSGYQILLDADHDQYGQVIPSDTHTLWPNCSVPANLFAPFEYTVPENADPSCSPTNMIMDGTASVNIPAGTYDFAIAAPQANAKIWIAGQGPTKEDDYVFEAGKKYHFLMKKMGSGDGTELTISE
Binder B1 has an OD450 nm of 0.807 and a Ratio OD(Variant)/OD(WT) of 1.05. For B2, the OD450 nm was 0.852 and 0.849 and the Ratio OD(Variant)/OD(WT) was 1.11 and 1.1. In the case of B3, the OD450 nm is reported as 0.502 and 0.512 and 0.501 and the Ratio OD(Variant)/OD(WT) is reported as 0.93 and 0.948 and 0.928. B4 was tested, and the OD450 nm was 0.437 and the Ratio OD(Variant)/OD(WT) was 0.809. B5 showed an OD450 nm of 0.458 and a Ratio OD(Variant)/OD(WT) of 0.848. For B6, the OD450 nm was 0.47 and 0.481 and the Ratio OD(Variant)/OD(WT) was 0.925 and 0.947. B7 was tested, and the OD450 nm was 0.435 and 0.468 and the Ratio OD(Variant)/OD(WT) was 0.806 and 0.867. With B8 the OD450 nm was 0.53 and the Ratio OD(Variant)/OD(WT) was 0.981. Work on B9 yielded an OD450 nm of 0.468 and a Ratio OD(Variant)/OD(WT) of 0.867. B10 was tested, and the OD450 nm was 0.468 and 0.486 and the Ratio OD(Variant)/OD(WT) was 0.867 and 0.9. Work on B11 yielded an OD450 nm of 0.792 and a Ratio OD(Variant)/OD(WT) of 1.03. Binder B12 has an OD450 nm of 0.488 and a Ratio OD(Variant)/OD(WT) of 0.904. With B13 the OD450 nm was 0.791 and 0.809 and 0.82 and the Ratio OD(Variant)/OD(WT) was 1.03 and 1.05 and 1.07. With B14 the OD450 nm was 0.511 and 0.526 and the Ratio OD(Variant)/OD(WT) was 0.946 and 0.974. Work on B15 yielded an OD450 nm of 0.445 and a Ratio OD(Variant)/OD(WT) of 0.876.

Source: patent publication US20240400654A1
